# Data reported in publication PMC5025857, “Redox-dependent Regulation of Gluconeogenesis by a Novel Mechanism Mediated by a Peroxidatic Cysteine of Peroxiredoxin” (Scientific Reports, 2016).
# T1: HA-tagged Pyk1 (HA-Pyk1) (S. cerevisiae, UniProt P00549 1-500)
# T1 construct: Pyk1 (Cdc19), pyruvate kinase of S. cerevisiae; also called pRS313-HA-PYK1; source: S. cerevisiae (pyk1∆ tsa1/2∆ or pyk1∆ cells) carrying pRS313-HA-PYK1, in lysate (whole cell extract)
# T1 sequence (looked up): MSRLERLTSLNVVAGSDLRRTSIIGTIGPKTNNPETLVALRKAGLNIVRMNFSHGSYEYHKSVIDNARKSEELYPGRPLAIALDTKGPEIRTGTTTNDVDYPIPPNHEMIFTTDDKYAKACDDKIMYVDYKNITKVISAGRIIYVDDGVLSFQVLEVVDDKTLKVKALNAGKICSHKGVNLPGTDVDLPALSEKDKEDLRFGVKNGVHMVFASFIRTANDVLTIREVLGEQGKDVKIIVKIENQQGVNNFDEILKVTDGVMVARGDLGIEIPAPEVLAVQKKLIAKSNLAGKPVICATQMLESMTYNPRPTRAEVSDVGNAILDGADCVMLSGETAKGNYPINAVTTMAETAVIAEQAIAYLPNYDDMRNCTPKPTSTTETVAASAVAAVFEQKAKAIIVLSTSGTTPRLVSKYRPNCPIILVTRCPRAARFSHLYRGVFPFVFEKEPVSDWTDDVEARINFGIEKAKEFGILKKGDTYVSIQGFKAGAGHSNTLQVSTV
# Target: T1, HA-tagged Pyk1 (HA-Pyk1)
# Assay: co-IP; HA-Pyk1 precipitated with anti-HA antibody beads from yeast whole cell extract (400 μg; IP buffer: 100 mM MES pH 7.0, 200 mM KCl, 15 mM MgCl2, 5% glycerol, 0.15% NP-40, 50 mM NEM; 4 °C, 3 h); immunoblot with anti-Tsa1, anti-Pyk1 and anti-Prx-SO2/SO3; cells from glucose (SDM) or ethanol (SEM -Trp) medium, exponential, diauxic shift or early stationary phase, with or without 1, 3 or 10 mM H2O2
# Conditions: partners not purified
fold decrease of Pyk1-bound Tsa1 against wild-type Tsa1 (ethanol medium),stoichiometry N,Binder
~3 fold,–,"Tsa1^C48T (enzyme, S. cerevisiae, UniProt P34760 1-196, looked up, Tsa1 of S. cerevisiae with the peroxidatic cysteine Cys48 mutated to Thr; source: S. cerevisiae pyk1∆ tsa1/2∆ cells carrying an expression vector (pRS315), in lysate) MVAQVQKQAPTFKKTAVVDGVFDEVSLDKYKGKYVVLAFIPLAFTFVTPTEIIAFSEAAKKFEEQGAQVLFASTDSEYSLLAWTNIPRKEGGLGPINIPLLADTNHSLSRDYGVLIEEEGVALRGLFIIDPKGVIRHITINDLPVGRNVDEALRLVEAFQWTDKNGTVLPCNWTPGAATIKPTVEDSKEYFEAANK"
–,8 molecules of Tsa1^C171T for each tetramer of Pyk1,"Tsa1^C171T (enzyme, S. cerevisiae, UniProt P34760 1-196, looked up, Tsa1 of S. cerevisiae with the resolving cysteine Cys171 mutated to Thr; source: S. cerevisiae tsa1/2Δ cells carrying an expression vector (pRS315), in lysate) MVAQVQKQAPTFKKTAVVDGVFDEVSLDKYKGKYVVLAFIPLAFTFVCPTEIIAFSEAAKKFEEQGAQVLFASTDSEYSLLAWTNIPRKEGGLGPINIPLLADTNHSLSRDYGVLIEEEGVALRGLFIIDPKGVIRHITINDLPVGRNVDEALRLVEAFQWTDKNGTVLPTNWTPGAATIKPTVEDSKEYFEAANK"
